Laboratory results taken from the supplement of paper PMC12764529.
± gives the half width of the 95% confidence interval.

How the values were obtained:
[1] = folding stability dG unfold from trypsin proteolysis; higher = more stable
In short: (§1)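 Designed mini-proteins with no cysteine and under 80 residues were kept only if AlphaFold2 dimer inter-PAE was above 15. In a PA-tagged cDNA display construct, they were digested with trypsin and chymotrypsin and then sequenced. K50 was inferred by Bayesian fitting of counts, and unfolding free energy was derived per protease or combined against a sequence-predicted unfolded-state K50 and a shared folded-state K50.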

[2] = folding stability dG unfold from chymotrypsin proteolysis; higher = more stable
In short: as §1

[3] = folding stability dG unfold (combined trypsin and chymotrypsin); higher = more stable
In short: as §1

Sequence	folding stability dG unfold [1]	folding stability dG unfold [2]	folding stability dG unfold [3]
SAGGSAGGSAEKKKVTIRIVVKPEDVEEILKAIEELLPPGAKATIKVFDKNGELIAEFEFEVSAGGSAGGSA [r18_188_TrROS_Hall]	2.5 ± 0.17 kcal/mol	3.09 ± 0.25 kcal/mol	2.86 ± 0.12 kcal/mol
SAGGSAGGSAEKKTITVVVKVDENGKEKTPEELAKELEKAGFKVTKVTWDEENNYVTVTIEASAGGSAGGSA [r18_466_TrROS_Hall]	1.72 ± 0.088 kcal/mol	1.11 ± 0.049 kcal/mol	1.4 ± 0.18 kcal/mol
SAGGSAGGSAEKLLIVVEVDTPEQAEALAKALAALLPPGAKITVKPVEVDGKLYLVAEVELSAGGSAGGSAG [r3_92_TrROS_Hall]	3.6 ± 0.16 kcal/mol	3.84 ± 0.21 kcal/mol	3.75 ± 0.2 kcal/mol
SAGGSAGGSAEKRIVAKVTEVRENEDGEKTVRVRITLPNGEELEVEVRRVERVGDYLVIELSAGGSAGGSAG [r3_261_TrROS_Hall]	1.26 ± 0.037 kcal/mol	1.2 ± 0.048 kcal/mol	1.29 ± 0.089 kcal/mol
SAGGSAGGSAEPEKKYNVKVTFYNPNTGELVLEAEFPNMTIDEVKELAKKLGLEIVKIEVGSAGGSAGGSAG [r3_423_TrMRF]	4.37 ± 0.27 kcal/mol	4.43 ± 0.061 kcal/mol	4.48 ± 0.13 kcal/mol
SAGGSAGGSAERTLTITVPAAPGDIPALVAPDGSVYGIGDFEVIPGEGRVELKVTLVKPGDASAGGSAGGSA [r18_116_TrMRF]	-0.879 ± 0.1 kcal/mol	0.212 ± 0.032 kcal/mol	-0.0227 ± 0.051 kcal/mol
SAGGSAGGSAETVTITLKVKPGEKVKIVNKKTKKVFEATVKDGYLTITLPKEDITEIKIEKVSAGGSAGGSA [r18_170_TrROS_Hall]	1.77 ± 0.05 kcal/mol	2.47 ± 0.019 kcal/mol	2.29 ± 0.09 kcal/mol
SAGGSAGGSAFDPGAPWIIMINIDIEVKKVEIERDPGDGKWEIKRIEITITIDIAIMPAEDMSAGGSAGGSA [r18_137_TrROS]	3.42 ± 0.39 kcal/mol	4.11 ± 0.23 kcal/mol	3.88 ± 0.38 kcal/mol
SAGGSAGGSAGAEELAKALAEELNVEVEVEVVEVEEPEVEVTEERRLPPAPEEVTIEEDESAGGSAGGSAGG [r11_753_TrROS_Hall]	-0.129 ± 0.074 kcal/mol	1.32 ± 0.092 kcal/mol	0.939 ± 0.12 kcal/mol
SAGGSAGGSAGAEITVEYNPETNVLTVTVKVEFTLPDGTKVERTYRATINADGTITIEPESAGGSAGGSAGG [r11_911_TrROS_Hall]	3.99 ± 0.27 kcal/mol	5 ± 0.095 kcal/mol	4.97 ± 0.13 kcal/mol
SAGGSAGGSAGAGSWKDALKASSNETVTIPLPPTGKTLKITFSKSDDGSWKVDIEVFPAESAGGSAGGSAGG [r11_13_TrMRF]	2.03 ± 0.13 kcal/mol	2.18 ± 0.079 kcal/mol	2.12 ± 0.15 kcal/mol
SAGGSAGGSAGAPTGFIRVRVEFVTPDGQPAEADFTVPASLVDAVFRAARETGARVSLEGSAGGSAGGSAGG [r11_603_TrMRF]	0.504 ± 0.1 kcal/mol	1.65 ± 0.074 kcal/mol	1.2 ± 0.068 kcal/mol
SAGGSAGGSAGAVFTLPDGMKITIEKNEDGTYTITIETDGKTETIEIKPGETIEIEIFPPSAGGSAGGSAGG [r11_164_TrROS_Hall]	2.43 ± 0.093 kcal/mol	3.202 ± 0.03 kcal/mol	2.91 ± 0.077 kcal/mol
SAGGSAGGSAGAVLPIKNGWVAVIHMGPDGRVTINIYPPDKPREIEIPVNEPMEIEIFPWSAGGSAGGSAGG [r11_164_TrROS]	2.08 ± 0.053 kcal/mol	1.3 ± 0.058 kcal/mol	1.78 ± 0.091 kcal/mol
SAGGSAGGSAGDAPPGATLTLNIELELTLKVVDPSTGELVEERKLRIPLTLTYVLDDDDLSAGGSAGGSAGG [r11_970_TrMRF]	3.15 ± 0.42 kcal/mol	4.24 ± 0.13 kcal/mol	3.8 ± 0.43 kcal/mol
SAGGSAGGSAGDFDIKTVKNPPGTLMIVMPDNGWIQQIKFDPKNGKFKIDEIKWIPLDDISAGGSAGGSAGG [r11_352_TrROS]	0.499 ± 0.028 kcal/mol	0.602 ± 0.066 kcal/mol	0.585 ± 0.11 kcal/mol
SAGGSAGGSAGDFKIKDVEVERPPGRHRVEIRLPGNKKPIKIDNVPTPDDAEDAVKELLKSAGGSAGGSAGG [r11_183_TrROS]	0.0405 ± 0.073 kcal/mol	0.975 ± 0.056 kcal/mol	0.683 ± 0.1 kcal/mol
SAGGSAGGSAGDGWRKASFIIDPNGEILEPIPLPPGVKVEVEPFPGDGMYFVEITIPPDDSAGGSAGGSAGG [r11_32_TrROS]	-0.497 ± 0.22 kcal/mol	0.684 ± 0.099 kcal/mol	0.378 ± 0.17 kcal/mol
SAGGSAGGSAGDKGYVMVTFPIEMTQYVYDPDGKPIGQHKHEMPITVMIPPNAAKKLLQASAGGSAGGSAGG [r11_620_TrROS]	0.186 ± 0.067 kcal/mol	0.773 ± 0.062 kcal/mol	0.592 ± 0.07 kcal/mol
SAGGSAGGSAGDKRITIWFPVPPGQPPPTLEEIADELPGFEDVDIDVEMYPNGYYRITIESAGGSAGGSAGG [r17_205_TrROS]	0.812 ± 0.047 kcal/mol	1.05 ± 0.14 kcal/mol	0.966 ± 0.078 kcal/mol
SAGGSAGGSAGDLLKEAVEEAKDSGHPNVPIRFNFPGGTIRITVKVDPKNGKVEIKVEPVSAGGSAGGSAGG [r17_475_TrROS]	0.674 ± 0.12 kcal/mol	0.445 ± 0.1 kcal/mol	0.645 ± 0.29 kcal/mol

Sequence	folding stability dG unfold [1]	folding stability dG unfold [2]	folding stability dG unfold [3]
SAGGSAGGSAGDNKPKPIKIRIESYYPNGKKQEHDFEVPDPEDLDELAKTNPGYKIDEIESAGGSAGGSAGG [r11_802_TrROS]	-0.258 ± 0.057 kcal/mol	0.821 ± 0.056 kcal/mol	0.478 ± 0.12 kcal/mol
SAGGSAGGSAGDNWVIRIWWPNGKEQVFPGNLEDLLERIPPDNKDMKVEIFDPDDGKEIWSAGGSAGGSAGG [r11_353_TrROS]	1.09 ± 0.043 kcal/mol	1.01 ± 0.17 kcal/mol	1.1 ± 0.17 kcal/mol
SAGGSAGGSAGDPGERPYVEVTVRIPITPGLEIPWWIPPENMPPEDAEKFAQDIAKEFLDSAGGSAGGSAGG [r11_409_TrROS]	0.889 ± 0.047 kcal/mol	-0.482 ± 0.17 kcal/mol	0.426 ± 0.11 kcal/mol
SAGGSAGGSAGDPGQELMFMWIWPWPNPDGQPWVRIFMWSVRVDDGKIKEIEPTTMWIPLSAGGSAGGSAGG [r11_35_TrROS]	3.08 ± 0.17 kcal/mol	3.774 ± 0.032 kcal/mol	3.55 ± 0.26 kcal/mol
SAGGSAGGSAGDSPSTPVLVTETFTFPVTVTAPNEGGYSTTTSTVTVTVTLEVYVSPSFPSAGGSAGGSAGG [r17_186_JUSTAS]	2.2 ± 0.053 kcal/mol	2.92 ± 0.04 kcal/mol	2.62 ± 0.061 kcal/mol
SAGGSAGGSAGDTLILVRNEDGRLYLIRVRAYRVPGEDGSLVFEVEIVEFPSLEEALAALSAGGSAGGSAGG [r11_967_TrROS_Hall]	4.05 ± 0.065 kcal/mol	4.825 ± 0.039 kcal/mol	4.66 ± 0.051 kcal/mol
SAGGSAGGSAGEEVILRIKVKLKNGEERTIEINMTLDELLAELPENVTEIKIEAIPKEDLSAGGSAGGSAGG [r11_596_TrROS_Hall]	1.29 ± 0.052 kcal/mol	1.54 ± 0.017 kcal/mol	1.46 ± 0.079 kcal/mol
SAGGSAGGSAGEKEITISILVKGEDGRLYAIKMKAKITFDEKTNELKIEIEEISITPLPPSAGGSAGGSAGG [r17_129_TrROS_Hall]	3.98 ± 0.21 kcal/mol	4.29 ± 0.16 kcal/mol	4.32 ± 0.23 kcal/mol
SAGGSAGGSAGEKPVYYARVTEVKYNPENKELEIKLENGETITLSLEELKSLKPGDIIRISAGGSAGGSAGG [r11_124_TrROS_Hall]	1.88 ± 0.057 kcal/mol	2 ± 0.023 kcal/mol	1.97 ± 0.065 kcal/mol
SAGGSAGGSAGEPKIIPIKLPENAKVEEFENPDGYPIKIFENPDNGEIWIVWPDGKIWPISAGGSAGGSAGG [r11_601_TrROS]	1.19 ± 0.051 kcal/mol	0.719 ± 0.056 kcal/mol	0.93 ± 0.067 kcal/mol
SAGGSAGGSAGEPVEIEIKIKVEVNGKTYEITAKLEVYKNEDGSYEVKLYAPPEAITEVESAGGSAGGSAGG [r11_816_TrROS_Hall]	2.47 ± 0.21 kcal/mol	2.99 ± 0.09 kcal/mol	2.7 ± 0.24 kcal/mol
SAGGSAGGSAGETITVKIVRFKPGSPEVRKLAEKLGLSEEEVEPVEVFTFKSEEELKAALSAGGSAGGSAGG [r11_83_TrROS_Hall]	-0.172 ± 0.12 kcal/mol	0.471 ± 0.24 kcal/mol	0.374 ± 0.16 kcal/mol
SAGGSAGGSAGEVVVEEKEDPSGVLTRTETYPDSVVVTEYKIAPDGKTTEPKPTILPKSESAGGSAGGSAGG [r17_72_JUSTAS]	-0.494 ± 0.1 kcal/mol	-0.583 ± 0.22 kcal/mol	-0.337 ± 0.15 kcal/mol
SAGGSAGGSAGFEAFVEEIKKDGDYKVEAFVFDNESGIKTLVIVLESPEEDKYEIRTFNISAGGSAGGSAGG [r11_753_TrMRF]	0.769 ± 0.038 kcal/mol	0.796 ± 0.24 kcal/mol	0.829 ± 0.14 kcal/mol
SAGGSAGGSAGFFIRIEPPNGEKVHFPMPPNQLPELAEEFPGLKIDDIDEGNGWIWVEVPSAGGSAGGSAGG [r17_22_TrROS]	-0.0744 ± 0.23 kcal/mol	-0.453 ± 0.47 kcal/mol	-0.264 ± 0.35 kcal/mol
SAGGSAGGSAGFNFDIELERDPNGRARVMIKIPLPNGKHYIVIYEFDPDSGKMETKIFPVSAGGSAGGSAGG [r11_107_TrROS]	3.07 ± 0.086 kcal/mol	3.82 ± 0.12 kcal/mol	3.43 ± 0.19 kcal/mol
SAGGSAGGSAGGAPNAPKPVLVFAEVTVTSVEYDPETGELRIEVELPDGGEKLTFRLPLSAGGSAGGSAGGS [r10_427_TrMRF]	1.93 ± 0.031 kcal/mol	2.44 ± 0.031 kcal/mol	2.23 ± 0.054 kcal/mol
SAGGSAGGSAGGAPPGAKFTVKVPSNDNVIPGSVTLGPDGGTVFHFDGPVPEGDYEIVLESAGGSAGGSAGG [r7_627_JUSTAS]	-1.63 ± 0.33 kcal/mol	-0.362 ± 0.17 kcal/mol	-0.643 ± 0.15 kcal/mol
SAGGSAGGSAGGAPTIRVELRHPNGERIELEFPADADVIFVPEDYEITRIEIVPADDPASAGGSAGGSAGGS [r10_571_TrMRF]	1.51 ± 0.062 kcal/mol	1.837 ± 0.018 kcal/mol	1.69 ± 0.052 kcal/mol
SAGGSAGGSAGGAVFKTPDGTTLTLLPDGTVVVTEYSPDGVPLRVETRTMTAADIAAAASAGGSAGGSAGGS [r10_874_JUSTAS]	-0.022 ± 0.12 kcal/mol	1.5 ± 0.088 kcal/mol	1.01 ± 0.085 kcal/mol
